Measured values from article PMC9464187 (2022).
One block for each molecule: values may come before it.

Experiments:
[1] = target: HLA-A*11:01 presenting the KRAS^G12D decamer peptide … (human | not stated); experiment: SPR; biotinylated pHLA (400-500 RU) immobilised on a streptavidin-coated CM5 sensor chip, Biacore T200; multi cycle steady state analysis, 10-point titration of JDI TCR from 50 µM to 0.1 µM; one site total least squares fit
[2] = target: HLA-A*11:01 presenting the KRAS G12D decamer peptide …; experiment: SPR; biotinylated pHLA (400-500 RU) immobilised on a streptavidin-coated CM5 chip, Biacore T200; multi cycle steady state analysis, ten 2-fold dilutions of TCR starting at 50 µM; one site fit
[3] = target: HLA-A*11:01 presenting the KRAS^G12D decamer peptide …; experiment: SPR
[4] = target: T1, KRAS WT peptide on HLA-A*11:01 (human); experiment: SPR; >4000-fold weaker than to KRAS G12D; soluble, with an engineered disulfide between the constant domains
T1 peptide: VVVGAGGVGK

[5] = target: T2, KRAS G12D peptide on HLA-A*11:01 (human); experiment: SPR single cycle kinetics; soluble, with an engineered disulfide between the constant domains
T2 peptide: VVVGADGVGK

Kd [1]: 63 µM | Kd [2]: 62.8 µM
Molecule: JDI TCR (parent TCR)

other: t1/2 [3]: 0.3 h
Molecule: JDI TCR (parent TCR) JDIa9bwt

other: t1/2 [3]: > 20 h
Molecule: JDI TCR (parent TCR) JDIa96b35

Kd [4]: 3 µM | t1/2 [5]: 1.2 h
B1: JDIa41b1 TCR (TCR)
alpha TRAV19*01 CDR3: AMSVPSGDGSYQFT
beta TRBV6-2*01 CDR3: ASKVGPGQHNSPLH
